In publication doi:10.1101/2023.02.03.526950:

What was measured:
[1] = target: PXN/paxillin, exogenously expressed in HEK293T cells (human) (UniProt P49023); assay: cross-linking
[2] = target: recombinant PXN WT (human) (UniProt P49023); assay: SEC-MALS

| stoichiometry N [1] | stoichiometry N [2] | Substance |
| --- | --- | --- |
| 2 | – | PXN/paxillin, exogenously expressed in HEK293T cells (from UniProt P49023-2 1-557) (natural protein) |
| – | 2 | recombinant PXN WT (from UniProt P49023-2 1-557) (natural protein) |
